Starred links: 1 amine or outer side, 2 acyl side, 3 side chain; linkers in the order of their positions; H or OH if unused. Positions of bridges follow the written chain, without caps; N, C: chain ends. Non-standard residues stand in square brackets, D forms with d. No end group written: not given here. X1 = 3‑(7-(3-acetamidophenyl)-1H-indol-3-yl)‑2‑aminopropanoic acid, CC(=O)Nc1cccc(-c2cccc3c(CC(N[*:1])C(=O)[*:2])c[nH]c23)c1; AEF(G) = 2-amino-3-(4-(2-guanidinoethoxy)phenyl)propanoic acid, N=C(N)NCCOc1ccc(C[C@H](N[*:1])C(=O)[*:2])cc1; X10 = 2‑amino‑3‑(4-(2-guanidinoethoxy)phenyl)propanoic acid, N=C(N)NCCOc1ccc(CC(N[*:1])C(=O)[*:2])cc1; Trp(7-(3-AcNH-Ph)) = CC(=O)Nc1cccc(-c2cccc3c(C[C@H](N)C(=O)O)c[nH]c23)c1; N‑methyl‑N‑acetyllysine = N-methyl-N-acetyllysine; Phe(4-OMe) = COc1ccc(C[C@H](N[*:1])C(=O)[*:2])cc1; Trp(7-Br) = N[C@@H](Cc1c[nH]c2c(Br)cccc12)C(=O)O; 2Nal(6-OH) = N[C@@H](Cc1ccc2cc(O)ccc2c1)C(=O)O; Trp(7-Me) = Cc1cccc2c(C[C@H](N)C(=O)O)c[nH]c12; dLys(Me3) = C[N+](C)(C)CCCC[C@@H](N)C(=O)O; AEF = NCCOc1ccc(C[C@H](N)C(=O)O)cc1; 3Pal = N[C@@H](Cc1cccnc1)C(=O)O; Aad = N[C@@H](CCCC(=O)O)C(=O)O; NMeK = CN[C@@H](CCCCN)C(=O)O; Pen = CC(C)(S)[C@H](N)C(=O)O; αMeK = C[C@](N)(CCCCN)C(=O)O; αMeC = C[C@](N)(CS)C(=O)O; lipid = not defined here; Thp = NC1(C(=O)O)CCOCC1; PEG = not defined here; Sar = CNCC(=O)O
T1: interleukin-23 receptor (IL-23R), Q5VWK5
T1 chain: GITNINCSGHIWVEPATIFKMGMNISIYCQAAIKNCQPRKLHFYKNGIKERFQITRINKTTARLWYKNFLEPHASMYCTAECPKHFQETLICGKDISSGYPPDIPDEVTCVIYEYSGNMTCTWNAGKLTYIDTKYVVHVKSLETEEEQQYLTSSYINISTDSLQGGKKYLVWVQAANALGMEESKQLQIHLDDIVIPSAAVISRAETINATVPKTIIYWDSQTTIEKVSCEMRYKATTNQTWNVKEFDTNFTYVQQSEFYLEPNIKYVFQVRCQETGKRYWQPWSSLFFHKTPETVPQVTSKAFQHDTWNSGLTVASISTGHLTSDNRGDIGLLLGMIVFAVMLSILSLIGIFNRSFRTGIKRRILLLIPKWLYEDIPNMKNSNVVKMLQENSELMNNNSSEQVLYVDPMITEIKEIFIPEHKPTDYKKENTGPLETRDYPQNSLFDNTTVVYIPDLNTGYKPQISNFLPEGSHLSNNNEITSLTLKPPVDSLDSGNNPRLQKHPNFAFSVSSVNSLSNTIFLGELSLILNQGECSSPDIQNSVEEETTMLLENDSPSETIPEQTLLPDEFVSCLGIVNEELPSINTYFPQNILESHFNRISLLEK

B1: SEQ ID NO: 305 (peptide)
peptide: [Pen]NT[Trp(7-Me)]K(lipid)[Pen]F[2Nal(6-OH)][αMeK]LN[3Pal][Sar]
modifications: not fully specified (bridges); ends and bridges not checked; also: lipid group unspecified
B2: SEQ ID NO: 307 (peptide)
peptide: [Pen]NT[Trp(7-Me)]K(lipid)[Pen][Phe(4-OMe)][2Nal(6-OH)][αMeK]LN[3Pal][Sar]
modifications: not fully specified (bridges); ends and bridges not checked; also: lipid group unspecified
B3: SEQ ID NO: 303 (peptide)
peptide: [Pen]LT[Trp(7-Me)]K(lipid)[Pen]F[2Nal(6-OH)][αMeK]LN[3Pal][Sar]
modifications: disulfide 1-6 (inferred); ends not checked; also: Lys5 lipidated, lipid not given here
B4: SEQ ID NO: 326 (peptide)
peptide: [Pen]ET[Trp(7-Me)]K(PEG)[Pen][AEF][2Nal(6-OH)][Thp]EN[3Pal][Sar]
modifications: not fully specified (bridges); ends and bridges not checked; also: PEG chain on Lys unspecified

Biological target: T1, interleukin-23 receptor (IL-23R), Q5VWK5
Test: cell-based or functional assay

| IL23R Reporter Assay IC50 [nM] | PBMC pSTAT3 IC50 | Binder |
| --- | --- | --- |
| < 10 |  | B1 |
| < 10 |  | R[Pen]NT[X1]K(Ac)[Pen][5‑(4-(2-amino-2-carboxyethyl)phenoxy)‑N,N,N‑trimethylpentan‑1‑aminium][2‑amino‑3‑(6-hydroxynaphthalen-2-yl)propanoic acid][Thp]EN[3Pal][Sar] (not fully specified (bridges); ends and bridges not checked) [SEQ ID NO: 39] |
| < 10 | < 10 pM | [dLys(Me3)][Pen]NT[Trp(7-(3-AcNH-Ph))]K(Ac)[Pen][AEF(G)][2Nal(6-OH)][Thp]EN[3Pal][Sar] (ends and bridges not checked) [SEQ ID NO: 33] |
| < 10 |  | B2 |
| > 100 | < 1 nM | [Pen]K(lipid)T[Trp(7-Me)]K(Ac)[Pen][2‑amino‑3‑(4-(2-aminoethoxy)phenyl)propanoic acid][2‑amino‑3‑(6-hydroxynaphthalen-2-yl)propanoic acid][Thp]EN[3Pal][Sar] (disulfide 1-6 (inferred); ends not checked; also: K2: lipidated lysine) [SEQ ID NO: 276] |
| < 10 | < 0.1 nM | R[Pen]NT[X1]K(Ac)[Pen][X10][2‑amino‑3‑(6-hydroxynaphthalen-2-yl)propanoic acid][Thp]EN[3Pal][Sar] (ends and bridges not checked) [SEQ ID NO: 35] |
| < 10 |  | [dLys(Me3)][Pen]NT[X1]K(Ac)[Pen][5‑(4-(2-amino-2-carboxyethyl)phenoxy)‑N,N,N‑trimethylpentan‑1‑aminium][2‑amino‑3‑(6-hydroxynaphthalen-2-yl)propanoic acid][Thp]EN[3Pal][Sar] (ends and bridges not checked) [SEQ ID NO: 37] |
| < 10 |  | [Pen]NT[Trp(7-Me)]K(Ac)[Pen][Phe(4-OMe)][2Nal(6-OH)][αMeK]LN[3Pal][Sar] (not fully specified (bridges); ends and bridges not checked) [SEQ ID NO: 306] |
| > 100 | < 1 nM | [Pen]NT[Trp(7-Me)]K(Ac)[Pen][2‑amino‑3‑(4-(2-aminoethoxy)phenyl)propanoic acid][2‑amino‑3‑(6-hydroxynaphthalen-2-yl)propanoic acid][Thp]K(Ac)N[3Pal][Sar]K(lipid) (disulfide 1-6 (inferred); ends not checked; also: K14: lipidated lysine) [SEQ ID NO: 278] |
| < 10 | < 0.1 nM | [N‑amino‑O‑(2-(2-(methylamino)ethoxy)ethyl)‑D‑serine][Pen]NT[Trp(7-Me)][N‑methyl‑N‑acetyllysine][Pen][AEF][2Nal(6-OH)][Thp]DN[3Pal][Sar] (disulfide 2-7 (inferred); ends not checked) [SEQ ID NO: 290] |
| < 10 |  | [Pen]LT[Trp(7-Me)]K(Ac)[Pen]F[2Nal(6-OH)][αMeK]LN[3Pal][Sar] (disulfide 1-6 (inferred); ends not checked) [SEQ ID NO: 304] |
| < 10 |  | [Pen]NT[2‑amino‑3‑(benzo(b)thiophen-3-yl)propanoic acid]K(Ac)[Pen][AEF][2Nal(6-OH)][Thp]EN[3Pal][Sar] (not fully specified (bridges); ends and bridges not checked) [SEQ ID NO: 334] |
| < 10 |  | B3 |
| < 10 | < 0.1 nM | [Pen]NT[Trp(7-Me)]K(Ac)[Pen][AEF][2Nal(6-OH)][Thp]EN[3Pal][Sar] (not fully specified (bridges); ends and bridges not checked) [SEQ ID NO: 347] |
| < 10 |  | RCNT[Trp(7-Me)]K(Ac)[αMeC][AEF][2Nal(6-OH)][Thp]EN[3Pal][Sar] (ends and bridges not checked) [SEQ ID NO: 4] |
| < 10 |  | [Pen]NT[Trp(7-Me)]K(Ac)[Pen][Phe(4-OMe)][2Nal(6-OH)][αMeK]LN[3Pal][Sar] (not fully specified (bridges); ends and bridges not checked) [SEQ ID NO: 308] |
| < 10 | < 10 pM | CNT[Trp(7-Me)]K(Ac)[αMeC][2‑amino‑3‑(4-(2-aminoethoxy)phenyl)propanoic acid][2‑amino‑3‑(6-hydroxynaphthalen-2-yl)propanoic acid][Thp]K(Ac)N[3Pal][Sar] (ends and bridges not checked) [SEQ ID NO: 5] |
| < 10 |  | K[Pen]NT[Trp(7-Me)]K[Pen][AEF][2Nal(6-OH)][Thp][Aad]N[3Pal][Sar] (not fully specified (residue 6, bridges); ends and bridges not checked) [SEQ ID NO: 348] |
| < 10 |  | [Pen]ET[Trp(7-Me)]K(Ac)[Pen][AEF][2Nal(6-OH)][Thp]EN[3Pal][Sar] (not fully specified (bridges); ends and bridges not checked) [SEQ ID NO: 331] |
| < 10 |  | B4 |
| < 10 | < 10 pM | [(R)‑3‑carboxy‑2‑(4-(((R)-5-carboxy-5-hydrazineylpentyl)amino)-4-oxobutanamido)‑N,N,N‑trimethylpropan‑1‑aminium][Pen]NT[Trp(7-Me)]K(Ac)[Pen][AEF][2Nal(6-OH)][Thp]EN[3Pal][Sar] (not fully specified (bridges); ends and bridges not checked) [SEQ ID NO: 340] |
| < 10 |  | [Pen]NT[Trp(7-Br)]K(Ac)[Pen][AEF][2Nal(6-OH)][Thp]EN[3Pal][Sar] (not fully specified (bridges); ends and bridges not checked) [SEQ ID NO: 313] |
| < 10 |  | R[Pen]NT[Trp(7-Br)]K(Ac)[Pen][AEF][2Nal(6-OH)][Thp]EN[3Pal][Sar] (not fully specified (bridges); ends and bridges not checked) [SEQ ID NO: 312] |
| > 100 | < 1 nM | [Pen]NT[Trp(7-Me)]K(Ac)[Pen][2‑amino‑3‑(4-(2-aminoethoxy)phenyl)propanoic acid][2‑amino‑3‑(6-hydroxynaphthalen-2-yl)propanoic acid][Thp]K(Ac)N[3Pal][Sar]K(lipid) (disulfide 1-6 (inferred); ends not checked; also: K14: lipidated lysine) [SEQ ID NO: 275] |
| > 100 | < 1 nM | R[Pen]NT[Trp(7-Me)]K(Ac)[Pen][AEF][2Nal(6-OH)][Thp]EN[3Pal][NMeK](lipid) (disulfide 2-7 (inferred); not fully specified; ends not checked) [SEQ ID NO: 279] |

Source: patent US20240279281A1, “Peptide Inhibitors of Interleukin-23 Receptor” (Janssen Pharmaceutica NV, priority 2023, published 2024)
